One experiment concerns the target T1, BIN1 SH3 domain (Homo sapiens, UniProt O00499).
T1 construct: 6x His with TEV cleavage site (N, cleaved yes); made in house; host or cells: E. coli BL21 (DE3), pET28a(+)
T1 sequence (O00499 513-593): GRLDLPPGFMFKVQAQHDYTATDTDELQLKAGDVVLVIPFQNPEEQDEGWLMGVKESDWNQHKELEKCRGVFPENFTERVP
Kind of experiment: Surface plasmon resonance (SPR) binding to immobilised BIN1 SH3 domain. The conditions noted are these: triplicate, ligand BIN1 SH3 domain 50 μg/mL, analyte serial dilution 75-0.6 μM, dissociation time 120 seconds, 25° C., running buffer 1×PBS-P+, read-out: dissociation constant (KD). How it is done: Next, the inventors determined the dissociation constant (KD) for the peptide and full-length 0N4R WT Tau by surface plasmon resonance (SPR). The experiment was run in triplicate with BIN1 SH3 domain 50 μg/mL as the ligand, and FL 0N4R WT Tau in serial dilution from 75-0.6 μM as the analyte. Flow rate—30 μL/minute, contact time—30 seconds, dissociation time—120 seconds, temperature—25° C., running buffer—1×PBS-P+. A dissociation constant of 1.136 μM was determined.
Then, the dissociation constants for nine compounds identified through the molecular docking analysis were assessed. […] Therefore, compound #5 is a candidate compound for further testing in Alzheimer's disease. Ligand-BIN1 SH3 domain 50 μg/mL. Analyte—compounds 1-2 (serial dilutions from 500-3.12 μM), #4 & 6-9 (250-3.12 μM) and #5 (dilutions from 100-3.12 μM). Flow rate—30 μL/minute, contact time—30 seconds, dissociation time—300 seconds, temperature—25° C., running buffer—1.05×PBS-P+ with 5% DMSO. Solvent correction for 5% DMSO was calculated and mathematically subtracted from each compound analysis.
Background: SPR reads the build-up and loss of mass on a sensor chip optically.

For experiment [1], the target named is T2, full-length 0N4R WT Tau (UniProt P10636-6 2-383, limits assumed).
T2 construct: mature; also called FL 0N4R WT Tau
Kind of experiment: SPR, run in triplicate; BIN1 SH3 domain (50 µg/mL) as immobilised ligand, FL 0N4R WT Tau in serial dilution from 75-0.6 µM as analyte; 25° C., 1×PBS-P+. On the procedure: (§1) Next, the inventors determined the dissociation constant (KD) for the peptide and full-length 0N4R WT Tau by surface plasmon resonance (SPR). The experiment was run in triplicate with BIN1 SH3 domain 50 μg/mL as the ligand, and FL 0N4R WT Tau in serial dilution from 75-0.6 μM as the analyte. Flow rate—30 μL/minute, contact time—30 seconds, dissociation time—120 seconds, temperature—25° C., running buffer—1×PBS-P+.

Experiment [2] has as its target T2, full-length 0N4R WT Tau. Description: SPR, steady-state affinity fit (replicate 3 of 3); BIN1 SH3 domain as immobilised ligand, FL 0N4R WT Tau as analyte 0.6-75 µM, 25 °C, PBS-P+. On the procedure: as §1
The target in experiment [3] is T2, full-length 0N4R WT Tau. Kind of experiment: SPR, steady-state affinity fit (replicate 2 of 3); BIN1 SH3 domain as immobilised ligand, FL 0N4R WT Tau as analyte 0.6-75 µM, 25 °C, PBS-P+. On the procedure: as §1
For experiment [4], the target named is T2, full-length 0N4R WT Tau. Description: SPR, steady-state affinity fit (replicate 1 of 3); BIN1 SH3 domain as immobilised ligand, FL 0N4R WT Tau as analyte 0.6-75 µM, 25 °C, PBS-P+. On the procedure:
as §1

T2 sequence (P10636 other isoform, or with tags, fused parts or gaps limits assumed): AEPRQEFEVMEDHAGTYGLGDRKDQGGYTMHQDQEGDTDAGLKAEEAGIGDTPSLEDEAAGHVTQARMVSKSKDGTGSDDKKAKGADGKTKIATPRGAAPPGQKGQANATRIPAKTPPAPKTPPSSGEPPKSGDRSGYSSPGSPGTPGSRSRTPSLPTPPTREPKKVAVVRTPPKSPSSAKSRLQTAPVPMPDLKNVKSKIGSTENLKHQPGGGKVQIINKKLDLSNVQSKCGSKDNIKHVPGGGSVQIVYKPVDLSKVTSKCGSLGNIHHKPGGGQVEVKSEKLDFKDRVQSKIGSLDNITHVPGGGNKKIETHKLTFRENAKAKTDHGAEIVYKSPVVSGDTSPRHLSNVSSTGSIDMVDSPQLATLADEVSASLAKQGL

For orientation: Kd means the free concentration of one partner at which half of the binding sites on the other are occupied at equilibrium, for simple one-to-one binding. With “FL 0N4R WT Tau: full-length 0N4R wild-type Tau protein used as analyte in SPR”, the Kd in the experiment with BIN1 SH3 domain amounted to 1140 nM.

B1: human BIN1 SH3 domain (untagged) (other)
chain: T1 sequence (O00499 513-593)
notes: also called native BIN1 SH3 domain; the peptide
As to B1, the Kd worked out at 1140 nM in the experiment with full-length 0N4R WT Tau [1], 1080 nM with full-length 0N4R WT Tau [2], 1300 nM with full-length 0N4R WT Tau [3] and 1030 nM with full-length 0N4R WT Tau [4].

These data come from patent US20240295570A1, “METHOD FOR IDENTIFYING CANDIDATE THERAPEUTICS FOR ALZHEIMER'S DISEASE” (UNIVERSITY OF SOUTH FLORIDA, priority 2023, published 2024).
